According to patent US20250270339A1 (Alector, published 2025):

T1: huTfR Apical Domain-Avi-His (human, biotin on the Avi tag (BirA) where captured on streptavidin)
T1 construct: also called huTfR apical Avi-His; hTfR Apical
T1 chain: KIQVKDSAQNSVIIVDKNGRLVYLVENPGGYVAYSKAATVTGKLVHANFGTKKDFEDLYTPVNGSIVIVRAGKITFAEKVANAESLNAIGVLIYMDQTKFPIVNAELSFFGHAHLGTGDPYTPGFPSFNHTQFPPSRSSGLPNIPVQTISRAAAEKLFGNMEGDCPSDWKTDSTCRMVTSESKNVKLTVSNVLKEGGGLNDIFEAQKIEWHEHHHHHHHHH

B1: TfR1 (mouse hybridoma antibody) (antibody, V domains shown)
VH: QVQLQQSGPELVKPGASVKMSCKASGYTFTNYYIHWVKQRPGQGLEWIGWIYPGDGSTKYNEKFKGKTTLTADKSSSTAYMLLSSLTSEDSAIYFCARDGSSAPKFTYWGQGTLVTVSA
VL: DIVMTQSPSSLTVTAGEKVTMRCKSSQSLLNSGNQKNYLTWYQQKPGQPPKLLIYWASTRESGVPDRFTGSGSGTDFTLTISSVQAEDLAVYYCQNDYSYPLTFGAGTKLELK
notes: mouse IgG in hybridoma supernatant
B2: TfR5 (mouse hybridoma antibody) (antibody, V domains shown)
VH: QVQLQQSGPELVKPGASVKMSCKASGYTFTNYYIHWVKQRPGQGLEWIGWIYPGDGNTNYNEKFKGKTTLTADKSSSTAYMLLSSLTSEDSAIYFCARDGSSAPKFTYWGQGTLVTVSA
VL: DIVMTQSPSSLTVTAGEKVTMRCKSSQSLLNSGNQKNYLTWYQQKPGQPPKLLFYWASTRESGVPDRFTGSGSGTDFTLTISSVQAEDLAVYYCQNDYSYPLTFGAGTKLELK
notes: as for B1
B3: TfR2 (mouse hybridoma antibody) (antibody, V domains shown)
VH: EVQLQQSGPELVKPGASVKISCKASGYTFTDYNMHWVKQSHGKSLEWIGYIYPYNGGTGYNQKFKSKATLTVDNSSSTAYMELRSLTSEDSAVYYCATLYDGYYFDYWGQGTTLTVSS
VL: DILLTQSPAILSVSPGERVSFSCRASQSIGTSIHWYQQRTNGSPRLLIKYASESISGIPSRFSGSGSGTDFTLSINNVESEDIADYYCQQSNSWPFTFGSGTKLEIK
notes: as for B1
B4: TfR3 (mouse hybridoma antibody) (antibody, V domains shown)
VH: QVQLRQSGPELVKPGASVRISCKASGYTFTSFYIHWVKQRPGQGLEWIGWIYPGDVNTHYSDKFKGKATLTADKSSSTAYMQLSSLTSEDSAVYFCAREGYGYFAYWGQGTLVTVSA
VL: DIVMTQSPSSLTVTAGEKVTMSCKSSQSLLNSGNQKNYLTWYQQKPGQPPKLLIYWASTRESGVPDRFTGVGSGTDFTLTISSVQAEDLAVYYCQNDYSYPLTFGSGTKLELK
notes: as for B1
B5: TfR4 (mouse hybridoma antibody) (antibody, V domains shown)
VH: QVQLQQSGAELVRPGTSVKVSCKASGYAFTNYLIEWVKQRPGQGLEWIGVINPGSGGTTYNEKFKGKATLTADKSSSTAYMQLSGLTSDDSAVYFCARRSPYFDYWGQGTTLTVSS
VL: SIVMTQTPKFLLVSAGDRVTITCKASQSVSNDVAWYQQKPGQSPKLLIYYASNRYTGVPDRFTGSGYGTDFTFTISTVQAEDLAVYFCHQDYISPTFGGGTKLEIK
notes: as for B1
B6: TfR8 (mouse hybridoma antibody) (antibody, V domains shown)
VH: QVQLQQSGAELVRPGTSVKVSCKASGYAFTNYLIEWVKQRPGQGLEWIGVINPGSGGTNYNEKFKGKATLTADKSSSTAYMQLSSLTSDDSAVYFCARRSPYFDYWGQGTTLTVSS
VL: SIVMTQTPKFLLVSAGDRVTITCKASQSVSNDVAWYQQKPGQSPKLLIYYASNRYTGVPDRFTGSGYGTDFTFTISTVQAEDLAVYFCHQDYISPTFGGGTKLEIK
notes: as for B1
B7: TfR18 (mouse hybridoma antibody) (antibody, V domains shown)
VH: QVQLQQSGAELVRPGTSVKVSCKASGYAFTNYLIEWIKQRPGQGLEWIGVINPGNNDTTYNEMFKAKTTLTADKSSNTAYMQLSSLTSDDSAVYFCARRSPYFDYWGQGTTLTVSS
VL: SIVMTQTPKFLLVSAGDRVTITCKASQSVSNDVAWYQQKPGQSPKLLIYYASNRYTGVPDRFTGSGYGTDFTFTISTVQAEDLAVYFCHQDYSSPTFGGGTKLEIK
notes: as for B1
B8: TfR6 (mouse hybridoma antibody) (antibody, V domains shown)
VH: DVQLVESGGGLVQPGGSRKLSCAASGFTFSSFGMHWVRQAPEKGLEWVAYISSGSSAIYYADTVKGRFTVSRDNPKNTLFLQMTSLRSEDTAIYYCATSYVYDPPWFAYWGQGTLVTVSA
VL: DIVMTQSHKFMSTSVGDRVSITCKASQDVSTAVAWYQQKPGQSPKLLIYWASTRPTGVPDRFTGSGSGTDYTLTISSVQAEDLALYSCQQHFSTPWTFGGGTKLEIK
notes: as for B1
B9: TfR7 (mouse hybridoma antibody) (antibody, V domains shown)
VH: DVQLQESGPGLVKPSQSLSLTCTVTGYSITSDYAWNWLRQFPGNKLEWMGYISYSGYSRHNPSLKSRISITRDTSKNQFFLQLNSVTSEDTATYYCARGDWDFDYWGQGTTLTVSS
VL: DIVMTQSQKFMSTSVGDRVSVTCKASQNVLTNVAWYQQKPGHSPKALIYSSSSRNSGVPDRFTGSGSGTDFTLTISNVQSEDLAEYFCQQYNTYPYTFGGGTKLEIK
notes: as for B1
B10: TfR9 (mouse hybridoma antibody) (antibody, V domains shown)
VH: EVQLQQSGPELVKPGASVKISCKTSGYTFTEYAMHWVKQSHGKSLEWIGGINPNDGGTSYNQKFKGKATLTVDKSSSTAYMELRSLTSEDSAVYYCSSQRWLLRGGDYWGQGTTLTVSS
VL: not shown
notes: as for B1
B11: TfR10 (mouse hybridoma antibody) (antibody, V domains shown)
VH: QVQLQQSGPELVKPGASVKMSCKASGYTFTSYYIHWVKQRPGQGLEWIGWIYPGDGNTNYNEKFKGKTTLTADKSSSTAYMLLSSLTSEDSAIYFCARDGSIPFAYWGQGTLVTVSA
VL: DIVMTQSPSSLTVTAGEKVTMSCKSSQSLLNSGNQKNYLTWYQQKPGQPPKLLIYWASTRESGVPDRFTGSGSGTDFTLTISSVQAEDLAVYYCQNDYSYPLTFGAGTKLELK
notes: as for B1
B12: TfR24 (mouse hybridoma antibody) (antibody, V domains shown)
VH: QVQLQQSGPELVKPGTSVKMSCKASGYTFTSYYIHWVKQRPGQGLEWIGWIYPGDDNTHYNENFKGKTTLTADKSSSTAYMLLSSLTSEDSAIYFCARDYYGRFAYWGQGTLVTVSA
VL: DIVMTQSPSSLTVTAGERVTMSCKSSQSLLNSGNQKNYLTWFQQKPGQPPKLLIYWASTRESGVPDRFTGSGSGTDFTVTISSVQAEDLAVYYCQNDYGYPLTFGAGTKLELK
notes: as for B1
B13: TfR30 (mouse hybridoma antibody) (antibody, V domains shown)
VH: QVQLQQSGPQLVRPGASVKISCKASGYSFTNYWLHWVKQRPGQGLEWIGMIDPSDSETRLNQKFKDKATLTVDKSSSTAYMQLSSPTSEDSAVYYCARWGGGYYGFAYWGQGTLVTVSA
VL: DIVMTQSQKFMSTSVGDRVSITCKASQNVRTAVAWYQQKPGQSPKALIYLASNRHTGVPDRFTGSGSGTDFTLTISNVQSEDLADYFCLQHWNYPWTFGGGTKLEIK
notes: as for B1

What was measured:
[1] = biological target: T2, Full length Mouse TfR on CHO cells (mouse, UniProt Q62351 1-763); test: FACS, CHO+muTfR
T2 construct: also called CHO + muTfR
T2 sequence (Q62351 whole entry): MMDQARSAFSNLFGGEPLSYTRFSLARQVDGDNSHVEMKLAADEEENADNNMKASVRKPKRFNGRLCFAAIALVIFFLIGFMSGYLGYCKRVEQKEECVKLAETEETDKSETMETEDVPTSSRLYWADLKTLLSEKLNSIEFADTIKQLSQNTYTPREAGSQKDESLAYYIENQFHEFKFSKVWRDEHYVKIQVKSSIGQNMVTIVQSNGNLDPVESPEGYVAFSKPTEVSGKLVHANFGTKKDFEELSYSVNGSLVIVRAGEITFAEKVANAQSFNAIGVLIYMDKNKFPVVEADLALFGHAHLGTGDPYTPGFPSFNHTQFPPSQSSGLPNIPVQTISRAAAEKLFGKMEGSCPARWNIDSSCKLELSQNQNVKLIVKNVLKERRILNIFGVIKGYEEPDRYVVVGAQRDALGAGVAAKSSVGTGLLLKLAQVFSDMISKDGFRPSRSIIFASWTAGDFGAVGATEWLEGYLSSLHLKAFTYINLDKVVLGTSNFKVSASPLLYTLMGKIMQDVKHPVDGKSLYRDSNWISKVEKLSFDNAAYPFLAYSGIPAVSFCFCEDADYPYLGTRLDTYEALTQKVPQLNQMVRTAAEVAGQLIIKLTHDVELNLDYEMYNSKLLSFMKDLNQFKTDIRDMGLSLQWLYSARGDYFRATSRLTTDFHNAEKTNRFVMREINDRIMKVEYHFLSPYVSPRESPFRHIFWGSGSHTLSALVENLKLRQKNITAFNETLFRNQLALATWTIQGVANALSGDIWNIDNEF
Description: (§1) A total of 1536 anti-TfR hybridoma supernatants were initially screened for their ability to differentially bind CHO cells overexpressing human or mouse TfR cells compared to CHO parental cells by FACS. Overexpressing cells were harvested, washed and labeled with Pacific Blue, FITC and Pacific Orange dyes (ThermoFisher) to create uniquely barcoded cell populations. Barcoded cells (5×10⁴ of each cell population) were aliquoted into 96-well U-bottom plates and incubated with 50 μl of hybridoma cell culture supernatant or […] of commercially available purified mouse anti-human TfR monoclonal antibody (Sigma Aldrich, Cat #SAB4700515) and rat anti-mouse TfR antibody (Invitrogen, Waltham, MA, Cat #R17217) on ice for 30 minutes. After this primary incubation, the supernatants were removed via centrifugation, the cells were washed twice with 175 μl of ice-cold FACS buffer (PBS+1% FBS+2 mM EDTA), and the cells were then further incubated on ice for 20 minutes with anti-mouse IgG Fc-allophycocyanin (APC) or anti-rat IgG Fc-APC (Jackson Labs, Cat #115-136-071 and Cat #112-136-071, respectively) (diluted 1:1000). Following this secondary antibody incubation, the cells were again washed twice with ice-cold FACS buffer and resuspended in a final volume of 50 μl of FACS buffer. Binding intensity on cells was analyzed using the FACS Canto system (BD Biosciences), and the ratio of APC Mean Fluorescence Intensity (MFI) on each barcoded cell population was determined for each anti-TfR hybridoma supernatant tested.

[2] = biological target: T2, Full length Mouse TfR on CHO cells; test: FACS MFI, supernatant
Description: as §1

[3] = biological target: T3, Full length human TfR on CHO cells (human, UniProt P02786 1-760); test: FACS MFI, supernatant
T3 construct: also called CHO + huTfR; CHO + hTfR
T3 sequence (P02786 whole entry): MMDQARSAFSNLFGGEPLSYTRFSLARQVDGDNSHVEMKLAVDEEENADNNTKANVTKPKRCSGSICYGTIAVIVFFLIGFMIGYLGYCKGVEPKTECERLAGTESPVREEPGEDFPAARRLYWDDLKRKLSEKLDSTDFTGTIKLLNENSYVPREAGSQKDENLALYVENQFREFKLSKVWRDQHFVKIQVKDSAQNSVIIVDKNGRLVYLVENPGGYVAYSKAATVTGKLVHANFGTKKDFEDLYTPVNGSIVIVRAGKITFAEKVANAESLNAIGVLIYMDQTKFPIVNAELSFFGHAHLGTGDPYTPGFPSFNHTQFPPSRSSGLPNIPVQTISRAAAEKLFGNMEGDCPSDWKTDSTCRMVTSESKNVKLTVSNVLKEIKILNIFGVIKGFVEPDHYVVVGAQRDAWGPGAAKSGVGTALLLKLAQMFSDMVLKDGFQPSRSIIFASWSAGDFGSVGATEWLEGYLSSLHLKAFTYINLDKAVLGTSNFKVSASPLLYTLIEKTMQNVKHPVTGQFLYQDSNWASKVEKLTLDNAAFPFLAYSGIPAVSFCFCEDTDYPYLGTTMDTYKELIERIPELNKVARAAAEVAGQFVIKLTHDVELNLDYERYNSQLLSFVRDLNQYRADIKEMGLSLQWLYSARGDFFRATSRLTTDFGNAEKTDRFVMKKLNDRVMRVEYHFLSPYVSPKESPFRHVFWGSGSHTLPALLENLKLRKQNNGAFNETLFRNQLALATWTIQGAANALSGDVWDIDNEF
Description: as §1

[4] = biological target: T1, huTfR Apical Domain-Avi-His; test: ELISA OD450, supernatant
Description: Hybridoma culture supernatants from 319 hybridomas obtained as described above were screened for their ability to bind Avi-His-tagged huTfR ECD, huTfR apical domain, and muTfR ECD (as described in Example 1) as compared to binding to an irrelevant Avi-His-tagged control protein. Briefly, 96-well polystyrene plates were coated with 5 μg/ml of streptavidin (Thermo Fisher, Cat #PI21125) in coating buffer (0.05M carbonate buffer, pH 9.6, Sigma, Cat #C3041) overnight at 4° C. Coated plates were then blocked with ELISA diluent (PBS+0.5% BSA+0.05% Tween20) for one hour. Blocking buffer was removed and Avi-His-tagged human TfR, human TfR apical domain, mouse TfR and an irrelevant Avi-His-tagged protein were added at 1 μg/ml in ELISA diluent and captured for 1 hour at room temperature. After washing three times with 300 μl of PBST (PBS+0.05% Tween20, Thermo 28352), the hybridoma cell culture supernatants were added (50 μl/well) to each well. After 30 minutes of incubation at room temperature, the plates were washed three times with 300 μl of PBST. Anti-mouse IgG Fc-HRP or anti-rat IgG Fc-HRP (Jackson Immunoresearch, Cat #115-035-071 and 112-036-071, respectively) secondary antibodies were diluted 1:5000 in ELISA diluent, added to each well at 50 μl/well, and incubated for 30 minutes at room temperature with shaking. After a final set of washes (3×300 μl in PBST), 50 μl/well of BioFx TMB substrate (Surmodics, Cat #TMBW-1000-01) was added to the wells. The reaction was then quenched after 5-10 mins with 50 μl/well of 2N sulfuric acid. The plates were read for absorbance at 450 nm on a SpectraMax M5 (Molecular Devices, Sunnyvale, CA) using SoftMax Pro software.

Row | Binder | binding result [1] | fold over parental (CHO WT) [2] [fold] | fold over parental (CHO WT) [3] [fold] | ratio over irrelevant protein [4] [fold]
1 | B1 | no binding | 1 | 228 | 22
2 | B2 | no binding | 1 | 561 | 15
3 | B3 | no binding | 1 | 458 | 5
4 | B4 | no binding | 1 | 38 | 37
5 | B5 | no binding | 1 | 61 | 42
6 | B6 | no binding | 1 | 215 | 37
7 | B7 | no binding | 1 | 75 | 32
8 | B8 | no binding | 1 | 451 | 37
9 | B9 | no binding | 1 | 87 | 48
10 | B10 | no binding | 1 | 203 | 10
11 | B11 | no binding | 1 | 389 | 35
12 | B12 | no binding | 1 | 370 | 31
13 | B13 | – | 1 | 169 | 29
